Measurements: the nanobody polyreactivity screen of Harvey et al. (2022)

Assay: yeast display, Sf9 membrane polyspecificity reagent, FACS + sequencing; frameworks hold sequencing errors
Procedure, shortened: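 Synthetic nanobody libraries on Saccharomyces cerevisiae BJ5465 were galactose-induced for 36–48 hours, stained 1 hour at 4 °C with 10% biotinylated, detergent-solubilized Sf9 membrane reagent and enriched on streptavidin microbeads. FACS then separated cells into low and high (top ~1%) gates by anti-HA (expression) and streptavidin (reagent binding) fluorescence. Genes were colony-PCR amplified, MiSeq 2 × 250 sequenced and CDR-length filtered. A clone's polyreactivity label is that of its gate of origin.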

Sequence	polyreactivity (PSR sort gate)
QVQLVESGGGLVQAGGRLRLSCAASRRIFDYNDRGWYRQAPGKERELVAAINDDSRTNYADSVKGRFTISRDNAKNTVYLQMNSLKPEDTAVYYCNNVYGRSGIGFDYWGQGTQVTVSS	low polyreactivity
QVQLVESGGGLVQAGGSLRLSCAASGSTFAIYPMGWYRPAPGKERELVAAITRSGGNTYYADSVKGRFTISRDNAKNTVYLQMNSLKPEDTAVYYCNAETYYWSAYAQYEYWGQGTQVTVSS	high polyreactivity
QVQLVESGGGLVQAGGSLRLSCAASGFTFYWYAMGWYRQAPGKERELVAAISRGGSTNYADSVKGRFTISRDNAKNTVYLQMNSLKPEDTAVYYCARDNPYRWFYRYVGEGDYWGQGTQVTVSS	low polyreactivity
QVQLVESGGGLVQAGGSLRLSCAASGRLFKSYAMGWYRQAPGKERELVAAIRSGGSTYYADSVKGRFTISRDNAKNTVYLQMISLKPEDTAVYYCNRVTRTWTVTYHYWGQGTQVTVSS	high polyreactivity
QVQLEESGLALVQAGGSLRLSCADSGRIFRKKAMGWYRQAPGKERELVAAISSSGSTYYADSVKGRFKISRDNAKNTVYLQMNSLKPVDTAVYYCAARYQYGNRRGRDYWGQGTQVTVSS	high polyreactivity
QVQLVESGGGLVQAGGSLRLSCAASGSTFAIYPMGWYRQAPGKETALVAAITRSGGNTYYADSVKGRFTISRDNAKNTVYLQMNSLKPEDTAVYYCNAETYYWSAYAQYDYWGQGTQVTVSS	high polyreactivity
QVQLVESGGGLVQAGGSLRLSCAASGFIFSGYAMGWYRQAPGKERELVAAITRSGSRTYYADSVKGRFTISRDNAKNTVYLQMNSLKPEDTAVYYCAKDKPKYGISTMDYWGQGTQVTVSS	high polyreactivity
QVQLVESGGGLVQAGGSLRLSCSASGSIFDGYAMGWYRQAPGKEREIVAAISKGGTRTYYADSVMGRFTISRDNAKNTVYLQMNSLKPEDTAFYYCNAYYRREPDDGDYDYWGQGSQVTVSS	high polyreactivity
QDQLVESGGGFVQAGGSLRLSCAASGFTFGSNTMGWSRQAPGKERELVAAITTSGDSTYYADSVKGRFTLSRDNAKNTVYLQMNSLKPEDTAVYDCAARRGYPRFEYWGQGTQVTVSS	high polyreactivity
QVQLVESGGGLVQAGGSLRLSCAASGRIVGYYAMGWYRQAPGKERELVATITFGGGSTYYADTVKGRFTISRDIAKNTVYLQMNSLKPEDTAVYYCAAEIYPLGSLRLGPGEYDHWGQGTQVTVSS	low polyreactivity
QVQLVESVRGLVQAGGSLRLSCAASGRIIYLNGMGSYRQAPGKERELVAAISSSDDSTYYAVSVKGRFTISRDNATNTVYLQLNSLKPEDTAVYYCAAGYHQVQNYGDAYYWSELYSWGQGTQVTVSS	low polyreactivity
QVQLVESGGGLVQAGGSLRLSCAASGRTCSRYAMGLYRQAPGKERELFAAISKSSGTTSYADSVKGRFSISRDNAKNTVYLQMIRLNPEDTAVYYFAAGITGRYYGVRFSEDYWGQGTQVTVSS	high polyreactivity
QVQLVESGGGLVQAGGSLRLSCAASGRIFTFYAMGWSRQAPGKERELVAVITTGTSTTYADSVKGRFTISRDNAKNTVYLQMNSLKPEDTAVYYCAVDSWSRVQGWLAHNYDYWGQGTQVTVSS	low polyreactivity
QVQLVESGGGLVQAGGSLRVSCAASGIFPAYDMGWYRQAPGKDRELVASISADSGSTHYADSVKGRFTISRDNAKNTVYFQMNSLKPEDTAVYYCAADLGYRTGDYYWGQGTQVTVSS	low polyreactivity
QVQLVESGGGLVQAGGSLRLSCAASGYIFRFNAMGWYRQAPGKERELVAVITSGARTYYADSVKGRFTISRDNAKNTFYLLMNSLKPEDTAVYYCNAGARRYLYDYWGQGTQVTVSS	low polyreactivity
QLQLVESGGGLVQAGGSLRLRCAASGRTFIRYAMGWYRPAPGKERELVAAISSRGGRTHYADSVKGRFTISRDNAKNTFYFQMNSLKPEDTAVYDCAADLNYGTVPGASYDYWGQGTQVTGSS	low polyreactivity
QVQLVDSGGGLVQAGGSLRLSSPASGFIIGLYAMGWYRQEPGKERELVAAISTSSGITYYADSVKGRFTISRDNAKNSVYLQMNSLKPEDTAVYYCAARGHYYDFCGQGTQVTVSS	low polyreactivity
HVQLQESGGGLVQAGGSMRLSCAESGSISELRPMGLYRKAPGKERELVAGISTGGSTNYADSVKGRFTISLDNAKNTVYLQMNSLKPEYTAVYFCAAASYCEGTYDYWGQGTQVTVRS	high polyreactivity
QVQLVESCGGLVQARGSLRLSCAACGRIFIRYALGWYSQAPGTERELVAAITRGGSTYYADSVKGRFTISRDNAKITVFLQMNSVKPEDTAVYYCAGRVGYPYYYWGQGTEVTVSS	high polyreactivity
QVQLVESGGGLVQAGGSLRLSCAASGRIFGPYAMGWYRQAPGKERELVAAISGRGSSTYYADSVKGRFTISRDNAKNTVYLQMNSLKPEDTAVYYCAKYPTYSYDYWGQGTQVTVSS	high polyreactivity
QVQLVESGGGLVQAGGSLRLSCAASGFTFYKYVMGWYRQAPGKERELVAAISYSSGSTYYADSVKGRFTISRDNAKNTVYLQMNSLKPEDTAVYYCAARTYYAPQNMGYWGQGTQVTVSS	high polyreactivity
QVQIVESGGGLVQAGGSLRLSCAASGSTFDYYAMGWYRQAPGKERELVAGISASGGSTYYADSVKGRFTISRDNAKNTVYLQMNRMKPEDTAVYYCASYYKPPGYDYWGQGTQVTVSS	low polyreactivity

Sequence	polyreactivity (PSR sort gate)
QVQLVESGGGFVQAGGSLRLSCAASGSIFYLYAMGWYRQAPGKERELVAAITSIGGSTYADSVKGRFTISRDNAKYTVYLQMNSLKPEDTAVYYCATYVAYHRGYRTYDQWGQGTQVTVSS	low polyreactivity
QVQLVESGGGLVQAGGSLRLSCAASGITFTQYAMGWYRQAPGKERELVAAISKRGGRTYYADSVKGRFTISRDNAKNTVYLQMNSLKPEDTAVYYCATVPYGEVDYWGQGTQVTVSS	high polyreactivity
QVQLVESGGGLVQAGGSLRLSCAASGRIFTYNPMGWYRQAPGKERELVAAISTRGGTTRYADSVKGRFTISRDNAKNTVYLQMNSLKPEDTAVYSCNAVSRGSRWDGLVRLDYWGQGTQVTVSS	high polyreactivity
QVQLVESGGVLVQGGGSLRLSCAASGSIFPFYALGWYRQAPGKERELVATNSWSGGRTYYADSVKGRFTKSRDNAKTNVYLQINILIPEDTAVYYCAAGSYHYPNAYYYWGQGTQLTVSS	high polyreactivity
QVQLVESGGGLVQAGGSLRLSCAASGLTFQWNAMGWYRQAPGKERELVAGITDIGDSTYYADSVKGRFTISRDNAKNTVYFQMNSLKPEDTAVYYCNATSGYKHAWRSENGYWGQGTQVTVSS	low polyreactivity
QDQLVESGGGLVQAGGSLRLSGAASGRIFRTNAMGWSRQAPGKERELVAAISDSGADTSYADSVKGRFTISRDNAKQSVYLQMNSLKPEDTAVYYCNRGRVSYRYLKDYDYWGQGTQVTVSS	low polyreactivity
QVQLVESGGGLVQAGGSLRLSCAASGSIFGWNAMGWYRQAPGKERELVASITWSGGRTYYADSVKGRFTISRDNAKNTVYLQMNSLKPEDTAVYYCAARGYTVWDDYWGQGTQVTVSS	high polyreactivity
QVQLVESGGGVVQAGGSLRLSCAASGRIFGGYAMGWYRQAPGKERELVAAISGSGGRTDYADSVKGRFTISRDNAKNTVYLQMNSLKPDDTAVYYCNKGYVYGHEYWGQGTQVTVSS	high polyreactivity
QVQLVESGGGLVQAGGSLRLSCAASGYTLGTYAMGWYRQAPGKERELVAAITWSGGRTNYADSVKGRFTISRDNAKNTVYLQMNSLKPEDTAVYYCAARYYFPFRRFRRMDYWGQGTQVTVSS	high polyreactivity
QVQLVESGGGLLQAGGSLRLSCAASGSTFRIYAMGWYRQAPGKERELVAAIRRRGASTYYADSVKGRFTISRDNAKNTVYLQMNSLKQEDTAVYYCAASYLWDRVPGRGIHDYWGQGTQVTVSS	high polyreactivity
QVQLVESGGGLVQAGGSLRLSCAASGRNFTSNTMGWYRQAPGTETELVAAITSSGGSMYYADSVKGRFTISRDNAKNTVYLQMNSLKPEDTAVYYCAADTIGYHYWYDYWGQGTQVTVSS	low polyreactivity
QVQLVESGGGLVQAGGSLRLICAASGSTFWGYTMGWYRQAPGKERELVAAITRSSGRTYYADSVKGRFTISRDNAMNTVYLQFHSLKPEDTAVYYWNADAVGRRTWSPYDYWGQGSQVTVSS	high polyreactivity
QVQLVESGGGLVQAGGSLRFSCAASGTFVPYAMGWYRQAPGKEMELVARITWRGGSTYYADSVKGRFTISRDNAKNTVDLQLNSLKPEDTAVYYCATVSDNRYYYWGQGTQVTVSS	low polyreactivity
QDQLVESGGGLVQAGGSLRLSCAASGLTLKENVMGWYRQAPGKERELFAAISTGASTYYADSVKGRFTISRDNAKNTVYLQMNSLKPEDTAVYYCAKRVTPWYGYWGQGTQVTVSS	high polyreactivity
QVQLVESGGGLVQAGGSLRLSCAASGRIFLLNAMGWYRQAPGKERELVAAITSGGTTYYADSVKGRFTISRDNAKNTVYLQMNSLKPEDTAVYYCAAEAGYFTYGRRDYWGQGTQVTGSS	low polyreactivity
QVQLVESGGGLVQAGGSLRLSCAASGRIFYFYAMGWYRQAPGKEREFVATISYTGGSRYYSDSVKGRFTISRDIAKNTVYLQMNSLKPEDTAVYYCAVRGWYPGFRYDYWGQGTQVTVSS	low polyreactivity
QVQLVESGGGLVQAGGSLRLSCAASGRTFVANAMGWYRQAPGKEREFVAAITGGDSTYYADSVKGRFTISRDNAKNTVYLQMNSLKPEDTAVYYCAAPYNFWNFFDLIYVWDGYDYWGQGTQVTVSS	low polyreactivity
QVQLVESGGGLVQAGGSLRLSCAASGFTFYWYAMGWYRQAPGKEREFVAAIDQSGGSTYYADSVKGRFTISRDNAKNTVYLQMNSLKPEDTAVYYCAAAYLRYVSTQYHYDYWGQGTQVTVSS	low polyreactivity
QDQLVESGGFLVQAGGSLRLSCAASGRTFSYYDMGWYRQAPGKERELVAAISSGGSTNYADSVKARFTISRENAKNTFYLQMNSLKPEDTGVSYCATSCIWGYGRVRWVTYYYWGQGTQVTVSS	low polyreactivity
QVQLVESGGGLVQAGGSLRLSCAASGRIFRYYAMGWYRQAPGKERELVAAIRWTAGSTYYADSVKGRFTISRDNAKNTVYLQMNSLKPEDTAVYYCATDVWKYGRYEYWGQGTLVTVSS	low polyreactivity
QVQLVESGGGLVQAGGSLRLSCPASGSIFDFYAMGWYRQAPGKERELVAAIDDIDDSTYYADSVKGRFTISRDNAKNTVYLQMNSLKPEDTAVYDCAAELRPGYRSSYGLIYDYWGQGTQVTVSS	low polyreactivity
